Source: the Human Domainome abundance scans (Beltran et al. 2025)
± gives the uncertainty stated by the source.

B1: Myocardin-related transcription factor A, residues 341 to 383; numbered along this chain, Q969V6 (parent)
chain: GALPANLDDMKVAELKQELKLRSLPVSGTKTELIERLRAYQDQ

Variants of: B1
Assay: abundance fitness (aPCA) (normalised: wild type 0, dead -1); higher = more abundant; growth selection in yeast, the domain comes from the species named
Conditions: Homo sapiens

Going from GALPANLDVMKVAELKQELKLRSLPVSGTKTELIERLRAYQDQ [D9V] to GALPANLDWMKVAELKQELKLRSLPVSGTKTELIERLRAYQDQ [D9W], the abundance fitness falls from 0.153 ± 0.079 to -0.139 ± 0.076.

Compared with GALPANLDDAKVAELKQELKLRSLPVSGTKTELIERLRAYQDQ [M10A], GALPANLDDCKVAELKQELKLRSLPVSGTKTELIERLRAYQDQ [M10C] is lower in abundance fitness: -0.104 ± 0.082 for the first, -0.441 ± 0.13 for the second.

GALPANLDDDKVAELKQELKLRSLPVSGTKTELIERLRAYQDQ [M10D] and GALPANLDDEKVAELKQELKLRSLPVSGTKTELIERLRAYQDQ [M10E] are within error of each other in abundance fitness: -0.894 ± 0.15 for the first, -0.979 ± 0.14 for the second.

First: GALPANLDDGKVAELKQELKLRSLPVSGTKTELIERLRAYQDQ [M10G]
Second: GALPANLDDIKVAELKQELKLRSLPVSGTKTELIERLRAYQDQ [M10I]
The abundance fitness of the first is lower: -0.839 ± 0.071 for the first, -0.302 ± 0.18 for the second.

GALPANLDDKKVAELKQELKLRSLPVSGTKTELIERLRAYQDQ [M10K] and GALPANLDDLKVAELKQELKLRSLPVSGTKTELIERLRAYQDQ [M10L] are within error of each other in abundance fitness: -0.151 ± 0.45 for the first, -0.222 ± 0.1 for the second.

GALPANLDDNKVAELKQELKLRSLPVSGTKTELIERLRAYQDQ [M10N] and GALPANLDDPKVAELKQELKLRSLPVSGTKTELIERLRAYQDQ [M10P] are within error of each other in abundance fitness: -0.425 ± 0.14 for the first, -0.531 ± 0.13 for the second.

GALPANLDDQKVAELKQELKLRSLPVSGTKTELIERLRAYQDQ [M10Q] and GALPANLDDRKVAELKQELKLRSLPVSGTKTELIERLRAYQDQ [M10R] are within error of each other in abundance fitness: -0.434 ± 0.13 for the first, -0.537 ± 0.058 for the second.

Going from GALPANLDDSKVAELKQELKLRSLPVSGTKTELIERLRAYQDQ [M10S] to GALPANLDDTKVAELKQELKLRSLPVSGTKTELIERLRAYQDQ [M10T], the abundance fitness falls from -0.256 ± 0.09 to -0.568 ± 0.12.

Going from GALPANLDDVKVAELKQELKLRSLPVSGTKTELIERLRAYQDQ [M10V] to GALPANLDDWKVAELKQELKLRSLPVSGTKTELIERLRAYQDQ [M10W], the abundance fitness rises from -0.872 ± 0.074 to -0.41 ± 0.091.

GALPANLDDYKVAELKQELKLRSLPVSGTKTELIERLRAYQDQ [M10Y] and GALPANLDDMAVAELKQELKLRSLPVSGTKTELIERLRAYQDQ [K11A] are within error of each other in abundance fitness: -0.068 ± 0.45 for the first, 0.132 ± 0.1 for the second.

GALPANLDDMCVAELKQELKLRSLPVSGTKTELIERLRAYQDQ [K11C] and GALPANLDDMDVAELKQELKLRSLPVSGTKTELIERLRAYQDQ [K11D] are within error of each other in abundance fitness: -0.126 ± 0.094 for the first, -0.045 ± 0.086 for the second.

First: GALPANLDDMEVAELKQELKLRSLPVSGTKTELIERLRAYQDQ [K11E]
Second: GALPANLDDMFVAELKQELKLRSLPVSGTKTELIERLRAYQDQ [K11F]
The abundance fitness of the first is higher: 0.047 ± 0.074 for the first, -0.502 ± 0.072 for the second.

GALPANLDDMGVAELKQELKLRSLPVSGTKTELIERLRAYQDQ [K11G] and GALPANLDDMHVAELKQELKLRSLPVSGTKTELIERLRAYQDQ [K11H] are within error of each other in abundance fitness: -0.054 ± 0.059 for the first, -0.154 ± 0.098 for the second.

GALPANLDDMLVAELKQELKLRSLPVSGTKTELIERLRAYQDQ [K11L] and GALPANLDDMMVAELKQELKLRSLPVSGTKTELIERLRAYQDQ [K11M] are within error of each other in abundance fitness: -0.197 ± 0.074 for the first, -0.275 ± 0.13 for the second.

GALPANLDDMPVAELKQELKLRSLPVSGTKTELIERLRAYQDQ [K11P] and GALPANLDDMQVAELKQELKLRSLPVSGTKTELIERLRAYQDQ [K11Q] are within error of each other in abundance fitness: -0.166 ± 0.098 for the first, -0.161 ± 0.13 for the second.

GALPANLDDMRVAELKQELKLRSLPVSGTKTELIERLRAYQDQ [K11R] and GALPANLDDMSVAELKQELKLRSLPVSGTKTELIERLRAYQDQ [K11S] are within error of each other in abundance fitness: -0.079 ± 0.059 for the first, -0.029 ± 0.093 for the second.

GALPANLDDMTVAELKQELKLRSLPVSGTKTELIERLRAYQDQ [K11T] and GALPANLDDMVVAELKQELKLRSLPVSGTKTELIERLRAYQDQ [K11V] are within error of each other in abundance fitness: -0.161 ± 0.077 for the first, -0.055 ± 0.068 for the second.

GALPANLDDMWVAELKQELKLRSLPVSGTKTELIERLRAYQDQ [K11W] and GALPANLDDMYVAELKQELKLRSLPVSGTKTELIERLRAYQDQ [K11Y] are within error of each other in abundance fitness: -0.635 ± 0.081 for the first, -0.799 ± 0.14 for the second.

GALPANLDDMKAAELKQELKLRSLPVSGTKTELIERLRAYQDQ [V12A] and GALPANLDDMKCAELKQELKLRSLPVSGTKTELIERLRAYQDQ [V12C] are within error of each other in abundance fitness: -0.029 ± 0.13 for the first, -0.212 ± 0.13 for the second.

Compared with GALPANLDDMKDAELKQELKLRSLPVSGTKTELIERLRAYQDQ [V12D], GALPANLDDMKEAELKQELKLRSLPVSGTKTELIERLRAYQDQ [V12E] is higher in abundance fitness: -0.363 ± 0.089 for the first, 0.098 ± 0.081 for the second.

Going from GALPANLDDMKFAELKQELKLRSLPVSGTKTELIERLRAYQDQ [V12F] to GALPANLDDMKGAELKQELKLRSLPVSGTKTELIERLRAYQDQ [V12G], the abundance fitness falls from -0.037 ± 0.11 to -0.218 ± 0.064.

Going from GALPANLDDMKIAELKQELKLRSLPVSGTKTELIERLRAYQDQ [V12I] to GALPANLDDMKLAELKQELKLRSLPVSGTKTELIERLRAYQDQ [V12L], the abundance fitness rises from -0.177 ± 0.13 to 0.164 ± 0.11.

Compared with GALPANLDDMKMAELKQELKLRSLPVSGTKTELIERLRAYQDQ [V12M], GALPANLDDMKNAELKQELKLRSLPVSGTKTELIERLRAYQDQ [V12N] is lower in abundance fitness: 0.199 ± 0.13 for the first, -0.647 ± 0.11 for the second.

GALPANLDDMKQAELKQELKLRSLPVSGTKTELIERLRAYQDQ [V12Q] and GALPANLDDMKRAELKQELKLRSLPVSGTKTELIERLRAYQDQ [V12R] are within error of each other in abundance fitness: -0.552 ± 0.42 for the first, -0.177 ± 0.073 for the second.

GALPANLDDMKSAELKQELKLRSLPVSGTKTELIERLRAYQDQ [V12S] and GALPANLDDMKWAELKQELKLRSLPVSGTKTELIERLRAYQDQ [V12W] are within error of each other in abundance fitness: -0.336 ± 0.1 for the first, -0.374 ± 0.099 for the second.

Going from GALPANLDDMKYAELKQELKLRSLPVSGTKTELIERLRAYQDQ [V12Y] to GALPANLDDMKVAALKQELKLRSLPVSGTKTELIERLRAYQDQ [E14A], the abundance fitness rises from -0.585 ± 0.3 to -0.079 ± 0.065.

GALPANLDDMKVACLKQELKLRSLPVSGTKTELIERLRAYQDQ [E14C] and GALPANLDDMKVADLKQELKLRSLPVSGTKTELIERLRAYQDQ [E14D] are within error of each other in abundance fitness: -0.311 ± 0.14 for the first, -0.266 ± 0.15 for the second.

GALPANLDDMKVAFLKQELKLRSLPVSGTKTELIERLRAYQDQ [E14F] and GALPANLDDMKVAGLKQELKLRSLPVSGTKTELIERLRAYQDQ [E14G] are within error of each other in abundance fitness: -0.3 ± 0.2 for the first, -0.165 ± 0.064 for the second.

Going from GALPANLDDMKVAHLKQELKLRSLPVSGTKTELIERLRAYQDQ [E14H] to GALPANLDDMKVAKLKQELKLRSLPVSGTKTELIERLRAYQDQ [E14K], the abundance fitness falls from 0.136 ± 0.12 to -0.215 ± 0.098.

GALPANLDDMKVALLKQELKLRSLPVSGTKTELIERLRAYQDQ [E14L] gave an abundance fitness of -0.355 ± 0.087.
